Assay [1] concerns the target PARP1 - Nuc165 complex (Alexa488-labelled PARP1 bound to a recombinant nucleosome with DNA linker ends of 7 and 11 base pairs) (UniProt P09874). As to the kind of experiment: FRET or BRET; Alexa647-HPF1 (0.6-10,000 nM, […] dilutions) titrated into Alexa488-PARP1 premixed with Nuc165 (20 nM) and DMSO (control, no olaparib); binding buffer 50 mM Tris-HCl pH 8.0, 50 mM NaCl, 1 mM MgCl2, 0.1 mM EDTA, 0.01% IGEPAL; 384-well plate. In general terms: In BRET a luciferase serves as donor, and the signal depends on an acceptor being close.

The target is the same in assay [2]. The assay is described as follows: FRET or BRET; as a1 but with olaparib (1 uM): Alexa647-HPF1 titrated into Alexa488-PARP1 premixed with Nuc165 (20 nM) and olaparib; binding buffer.

Chain of PARP1 - Nuc165 complex (Alexa488-labelled PARP1 bound to a recombinant nucleosome with DNA linker ends of 7 and 11 base pairs) (P09874 whole entry, looked up, one chain of several): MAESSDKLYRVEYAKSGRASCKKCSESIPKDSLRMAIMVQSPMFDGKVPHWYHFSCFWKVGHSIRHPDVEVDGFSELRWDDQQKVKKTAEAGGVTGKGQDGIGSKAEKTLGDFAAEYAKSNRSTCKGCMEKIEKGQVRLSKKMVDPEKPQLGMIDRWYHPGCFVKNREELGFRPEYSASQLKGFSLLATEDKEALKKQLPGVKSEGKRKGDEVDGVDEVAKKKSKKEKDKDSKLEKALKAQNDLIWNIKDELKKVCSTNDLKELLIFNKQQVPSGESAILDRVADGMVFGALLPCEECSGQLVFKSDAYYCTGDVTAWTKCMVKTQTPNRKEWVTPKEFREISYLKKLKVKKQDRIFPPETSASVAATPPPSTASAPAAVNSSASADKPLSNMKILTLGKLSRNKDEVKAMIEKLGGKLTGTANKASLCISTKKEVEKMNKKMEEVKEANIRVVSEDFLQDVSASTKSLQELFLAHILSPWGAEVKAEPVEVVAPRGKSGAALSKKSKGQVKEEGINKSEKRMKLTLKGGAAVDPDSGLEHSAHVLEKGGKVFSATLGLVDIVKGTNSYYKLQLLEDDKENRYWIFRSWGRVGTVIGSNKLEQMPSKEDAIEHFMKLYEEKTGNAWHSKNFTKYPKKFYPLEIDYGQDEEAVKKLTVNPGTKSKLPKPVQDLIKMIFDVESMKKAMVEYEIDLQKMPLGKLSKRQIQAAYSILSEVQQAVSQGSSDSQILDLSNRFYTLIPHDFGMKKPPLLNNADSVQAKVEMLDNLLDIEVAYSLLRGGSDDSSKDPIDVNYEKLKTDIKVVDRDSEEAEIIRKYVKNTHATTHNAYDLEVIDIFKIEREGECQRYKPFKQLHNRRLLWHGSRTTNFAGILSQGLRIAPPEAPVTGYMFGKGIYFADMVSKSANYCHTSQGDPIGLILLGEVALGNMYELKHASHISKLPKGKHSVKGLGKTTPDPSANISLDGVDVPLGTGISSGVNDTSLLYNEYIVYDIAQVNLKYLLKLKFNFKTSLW

B1: Histone PARylation factor 1 (HPF1), labelled with Alexa647 (natural protein)
chain: LRKEVENHYKLSLPEDFYHFWKFCEELDPEKPSDSLSASLGLQLVGPYDILAGKHKTKKKSTGLNFNLHWRFYYDPPEFQTIIIGDNKTQYHMGYFRDSPDEFPVYVGINEAKKNCIIVPNGDNVFAAVKLFLTKKLREITDKKKINLLKNIDEKLTEAARELGYSLEQRTVKMKQRDKKVVTKTFHGAGLVVPVDKNDVGYRELPETDADLKRICKTIVEAASDEERLKAFAPIQEMMTFVQFANDECDYGMGLELGMDLFCYGSHYFHKVAGQLLPLAYNLLKRNLFAEIIEEHLANRSQENIDQLAA
modifications: Alexa647 C2 maleimide label (extent of labeling typically 50-100%)
Usually Kd stands for the free concentration of one partner at which half of the binding sites on the other are occupied at equilibrium, for simple one-to-one binding. Turning to B1, the Kd in assay [1] was 790 nM; in assay [2], 229 nM.

These data come from article PMC7854685, “Histone Parylation factor 1 contributes to the inhibition of PARP1 by cancer drugs” (Nature Communications, 2021).
